In assay [1] the target is T1, HA-tagged human TIGIT with mutation H90A, on CHO-K1 cells (human, UniProt Q495A1 22-244).
T1 construct: Built as for m17
T1 sequence: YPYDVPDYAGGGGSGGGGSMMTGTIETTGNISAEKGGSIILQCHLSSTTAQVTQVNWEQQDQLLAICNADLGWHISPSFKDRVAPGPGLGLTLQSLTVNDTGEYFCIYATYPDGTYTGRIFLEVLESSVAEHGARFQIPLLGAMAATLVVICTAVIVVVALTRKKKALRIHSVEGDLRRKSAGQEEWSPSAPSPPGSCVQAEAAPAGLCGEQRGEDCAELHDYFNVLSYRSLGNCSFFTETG
The assay is described as follows: flow cytometry on CHO-K1 cells transiently expressing HA-tagged TIGIT mutant. On the procedure: (§1) For flow cytometry analysis of the anti-hTIGIT antibody binding epitope, HA-tagged human TIGIT proteins with or without single amino acid mutation were transiently transfected into CHO-K1 cells. After 24 hr, transfected cells were suspended in HBSS buffer (Thermo Fisher Scientific, Cat#14175095), and incubated with HuTIG1-IgG1.AA antibody at varying concentrations in 50 μL volume. After 1 hr incubation at 4° C., cells were washed and a second incubation with 50 μL Alexa488 conjugated anti-human IgG(H+L) secondary antibody (Thermo Fisher Scientific, Cat#A-11013) was performed to detect cells bound by antibody. Cells were incubated with an anti-HA antibody (Sigma, Cat# H7411) as a positive control, and non-transfected CHO-K1 cells were used as a negative control. The cells were analyzed on an Attune NxT Cytometer (Thermo Fisher Scientific) and the data were processed using FlowJo software. For each mutant, the saturating antibody binding MFI (mean fluorescence intensity) were normalized to 100% POC (percent of control), and no primary antibody binding control MFI were normalized to 0% POC. Data were then fit to a four parameter non-linear sigmoidal curve using GraphPad Prism 7 curve fitting using following formula: Y=Bottom+(Top−Bottom)/(1+10^{((Log EC}^₅₀^{-X)*HillSlope)}).
(§2) All of these residues co-locate to one discrete region on the front ([…] structure of the TIGIT IgV extracellular domain (FIG. 28).
(Flow cytometry measures light scatter and fluorescence of single cells or particles in a stream.)

Assay [2] has as its target T2, HA-tagged human TIGIT with mutation Q35A, on CHO-K1 cells (human, UniProt Q495A1 22-244).
T2 construct: Built as for m17
T2 sequence: T1 sequence with Q54A, A109H
Described as above. The procedure:
as §1, §2

For assay [3], the target named is T3, HA-tagged human TIGIT with mutation N37A, on CHO-K1 cells (human, UniProt Q495A1 22-244).
T3 construct: Built as for m17
T3 sequence: T1 sequence with N56A, A109H
The assay is described as above. On the procedure: as §1, §2

The target of assay [4] is T4, His-tagged soluble recombinant human TIGIT (Cat # TIT-H52H3; Acro Biosystems) (human, UniProt Q495A1 22-141).
T4 construct: Bought reagent; not shown: His tag
T4 sequence (looked up): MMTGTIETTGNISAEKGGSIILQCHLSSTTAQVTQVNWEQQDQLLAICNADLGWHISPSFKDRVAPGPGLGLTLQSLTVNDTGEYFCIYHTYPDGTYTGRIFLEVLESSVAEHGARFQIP
The assay is described as follows: SPR (BioRad ProteOn XPR36), antibody captured by anti-human IgG, soluble TIGIT as analyte, 25 °C, 1:1 model. The procedure:
Biosensor studies for HuTIG1-IgG1.AA were run on a BioRad ProteOn XPR36 system in 10 mM HEPES, 150 mM NaCl, pH 7.4, 0.005% Tween-20 and 0.2 mg/ml BSA at 25° C. HuTIG1-IgG1.AA was diluted to 3.7, 1.2 and 0.4 nM and captured for 5 minutes onto a GLM sensor chip coated with ˜10,000 RU of GE's anti-human IgG antibody. His-tagged soluble recombinant human TIGIT (Cat # TIT-H52H3; Acro Biosystems, Newark, Del.) was tested at 100 nM as the highest concentration in a 3-fold dilution series down to 1.2 nM. The data from the three different density antibody surfaces were globally fit to a 1:1 interaction model using a local Rmax.

The target of assay [5] is T5, extracellular region of human TIGIT fused to the Fc region of human immunoglobulin gamma-1 chain (hTIGIT-Fc) (human).
T5 construct: also called human TIGIT-Fc fusion protein; wild-type TIGIT-Fc
The assay is described as follows: ELISA, plate coated with 5 µg/ml hTIGIT-Fc. The procedure: Binding of HuTIG1-IgG1.AA to human TIGIT was examined by ELISA. An ELISA plate was coated with 5 μg/ml hTIGIT-Fc in PBS (100 μl/well) at 4° C. overnight, washed with Wash Buffer (PBS containing 0.05% Tween 20), and blocked with 200 μl/well of SuperBlock Blocking Buffer (Thermo Fisher Scientific). After washing wells with Wash Buffer, HuTIG1-IgG1.AA, starting at 2.5 μg/ml and serial 2-fold dilutions in SuperBlock Blocking Buffer, was added for binding to plate-bound human TIGIT. After incubating the ELISA plate for 1 hr at room temperature and washing with Wash Buffer, bound antibodies were detected with 100 μl/well of HRP-conjugated goat anti-human kappa chain polyclonal antibody (Southern Biotech), 1/2,000-diluted in ELISA Buffer. After incubating for 30 min at room temperature and washing with Wash Buffer, color development was initiated with 100 μl/well of ABTS substrate and stopped with 100 μl/well of 2% oxalic acid. Absorbance was read at 405 nm. […] The half maximal effective concentration (EC₅₀) of HuTIG1-IgG1.AA for binding to TIGIT was 65 ng/ml.
(An ELISA detects its analyte on a solid surface through an enzyme-linked reagent.)

Numbering of substitutions follows the chain as printed. Numbers in names are those of the source. Where only a bound is given, the exact number is not on record here.

B1: HuTIG1-IgG1.AA (humanized IgG1/kappa form of TIG1, L234A/L235A) (antibody)
heavy: not shown
light: DIQMTQSPSSLSASVGDRVTITCRASKSISKYLAWYQQKPGKAPKLLIYSGSTLQSGVPSRFSGSGSGTDFTLTISSLQPEDFATYYCQQHNEYPWTFGGGTKVEIKRTVAAPSVFIFPPSDEQLKSGTASVVCLLNNFYPREAKVQWKVDNALQSGNSQESVTEQDSKDSTYSLSSTLTLSKADYEKHKVYACEVTHQGLSSPVTKSFNRGEC
notes: Mature full chains; also called humanized TIG1
Regarding B1, in assay [1], the “fold decrease in binding affinity against wild type human TIGIT” value (“fold decrease in binding affinity” below) was greater than 10 fold. The “fold decrease in binding affinity” value in assay [2] was greater than 10 fold. The “fold decrease in binding affinity” value in assay [3] was greater than 10 fold. Besides, in assay [4], the Kd (usually the concentration at which binding is half-saturated) worked out at 0.925 nM, the koff (commonly the rate constant with which the complex falls apart) stood at 0.000409 s⁻¹ and the kon (commonly the second-order rate constant of association) is 442000 M⁻¹ s⁻¹. The response in assay [5] was half-maximal at 0.065 µg/mL (EC50).

Values taken from patent publication US20170281764A1 (JN BIOSCIENCES, published 2017).
